Target: target receptor on brush border membrane vesicles (BBMVs) from C. includens (Pseudoplusia includens (C. includens))

“PtIP-65Aa polypeptide (Pteridophyta Insecticidal Protein-65Aa)” gave an EC50 of 14 nM.

Reference: US20250327089A1
